Test results reported in patent US7294496B1, “Cloned human lysophospholipase” (The Regents of the University of California, priority 2000, dated 2007).

B1: Rat brain iPLA2: Ca2+-independent phospholipase A2 purified from rat brain (protein, UniProt P97570 1-807, looked up)
85/88 kDa calcium-independent …: MQFFGRLVNTLSSVTNLFSNPFRVKEVSLADYASSERVREEGQLILLQNASNRTWDCVLVSPRNPQSGFRLFQLESEADALVNFQQYSSQLPPFYESSVQVLHVEVLQHLTDLIRNHPSWTVTHLAVELGIRECFHHSRIISCANSTENEEGCTPLHLACRKGDSEILVELVQYCHAQMDVTDNKGETAFHYAVQGDNPQVLQLLGKNASAGLNQVNNQGLTPLHLACQMGKQEMVRVLLLCNARCNIMGPGGFPIHTAMKFSQKGCAEMIISMDSNQIHSKDPRYGASPLHWAKNAEMARMLLKRGCDVDSTSASGNTALHVAVTRNRFDCVMVLLTYGANAGARGEHGNTPLHLAMSKDNMEMVKALIVFGAEVDTPNDFGETPAFIASKISKLITRKALLTLLKTVGADYHFPFIQGVSTEQSSAAGPHPFFSLDRTQPPTISLNNLELQDLMPVSRARKPAFILSSMRDEKRSHDHLLCLDGGGVKGLVIIQLLIAIEKASGVATKDLFDWVAGTSTGGILALAILHSKSMAYMRGVYFRMKDEVFRGSRPYESGPLEEFLKREFGEHTKMTDVKKPKVMLTGTLSDRQPAELHLFRNYDAPEAVREPRCTPNINLKPPTQPADQLVWRAARSSGAAPTYFRPNGRFLDGGLLANNPTLDAMTEIHEYNQDMIRKGQGNKVKKLSIVVSLGTGKSPQVPVTCVDVFRPSNPWELAKTVFGAKELGKMVVDCCTDPDGRAVDRARAWCEMVGIQYFRLNPQLGSDIMLDEVSDAVLVNALWETEVYIYEHREEFQKLVQLLLSP
B2: Human Recombinant cPLA2: human recombinant cytosolic Ca2+-dependent phospholipase A2, gift from Lilly Laboratories (protein, UniProt P47712 1-749, looked up)
Cytosolic phospholipase A2: MSFIDPYQHIIVEHQYSHKFTVVVLRATKVTKGAFGDMLDTPDPYVELFISTTPDSRKRTRHFNNDINPVWNETFEFILDPNQENVLEITLMDANYVMDETLGTATFTVSSMKVGEKKEVPFIFNQVTEMVLEMSLEVCSCPDLRFSMALCDQEKTFRQQRKEHIRESMKKLLGPKNSEGLHSARDVPVVAILGSGGGFRAMVGFSGVMKALYESGILDCATYVAGLSGSTWYMSTLYSHPDFPEKGPEEINEELMKNVSHNPLLLLTPQKVKRYVESLWKKKSSGQPVTFTDIFGMLIGETLIHNRMNTTLSSLKEKVNTAQCPLPLFTCLHVKPDVSELMFADWVEFSPYEIGMAKYGTFMAPDLFGSKFFMGTVVKKYEENPLHFLMGVWGSAFSILFNRVLGVSGSQSRGSTMEEELENITTKHIVSNDSSDSDDESHEPKGTENEDAGSDYQSDNQASWIHRMIMALVSDSALFNTREGRAGKVHNFMLGLNLNTSYPLSPLSDFATQDSFDDDELDAAVADPDEFERIYEPLDVKSKKIHVVDSGLTFNLPYPLILRPQRGVDLIISFDFSARPSDSSPPFKELLLAEKWAKMNKLPFPKIDPYVFDREGLKECYVFKPKNPDMEKDCPTIIHFVLANINFRKYRAPGVPRETEEEKEIADFDIFDDPESPFSTFNFQYPNQAFKRLHDLMHFNTLNNIDVIKEAMVESIEYRRQNPSRCSVSLSNVEARRFFNKEFLSKPKA

Legend:
Format in all cases: biochemical
[1] = PLA2 activity assay toward PAPC; details: 100 mM Hepes, 2 mM DTT
Protocol: (§1) The protein concentration was determined by the Bio-Rad protein assay, using bovine serum albumin (BSA) as standard. Protein purity was examined using 12% SDS-PAGE and Coomassie blue staining. LysoPLA activity was measured at 40° C. in the assay buier containing LysoPC, 100 mM Tris-HCl (pH 8.0) and 10 mM LMe. Cold 1-palmitoyl-sn-glycero-3-phosphorylcholine (125 μM, unless indicated otherwise) was mixed with 1-[14 C]palmitoyl-sn-glycero-3-phosphorylcholine (100,000 cpm) in a total volume of 0.5 ml. The assay was initiated by adding an aliquot of enzyme solution to the substrate mixture and incubating for the desired time. The released fatty acid was extracted by the modified Dole method and then quantified by scintillation counting. The PLA2 activity assay was carried out, using various ^14C-labeled phospholipid substrates under various conditions as given in the text. The rat brain iPLA2 was purified as described elsewhere (H. C. Yang et al., manuscript in preparation incorporated herein). Human recombinant cPLA2 was a gift from Drs. J. D. Sharp and R. M. Kramer at Lilly Laboratories. 1-[^14C]Palmitoyl-sn-glycero-3-phosphorylcholine and 1-palmitoyl-2-[1-^14C]palmitoyl-sn-glycerol-3-phosphorylcholine were purchased from Amersham. 1-Palmitoyl-2-[1-^14C]arachidonoyl-sn-glycerol-3-phosphorylcholine was purchased from DuPont-NEN. All unlabeled phospholipids were purchased from Avanti Polar Lipids. Triton X-100 (TX-100) and PIP2 were obtained from CalBiochem.
(§2) When we first purified the mouse LysoPLA from P388D1 cells, no other enzymatic activities (PLA1, PLA2, acyltransferase, transacylase and esterase) were found. Therefore, it appears to be a LysoPL-specific LysoPLA. Similar results were obtained for the rat LysoPLA and the relative rates towards different LysoPL substrates were reported [Sugimoto et al., (1996) J. Biol. Chem. 271, 7705-11]. However, a recently sequenced rabbit enzyme that shares high sequence homology (approx. 97%) to the rat/mouse LysoPLA was reported to have both PLA2 and LysoPLA activities [Portilla, et al., […] J. Am. Soc.Nephrol. 9, 1178-86]. The specific activities, however, were only 10 nmol/min/mg for PLA2 activity and 20 nmol/min/mg for LysoPLA activity. The PLA2 activity was also reported to be selective for PlsCho substrate with arachidonic acid at the sn2 position. To determine whether hLysoPLA also expresses PLA2 activity, we have explored its ability to hydrolyze arachidonic acid labeled PlsCho as well as other phospholipid substrates under a variety of conditions.

[2] = PLA2 activity assay toward DPPC; details: DPPC/TX-100 mixed micelles (100 μM:400 μM); 100 mM Hepes, pH 7.5, 2 mM DTT, 5 mM EDTA
Protocol: as §1, §2

[3] = PLA2 activity assay toward plasmenylcholine; details: for Activity: 100 mM Hepes, 2 mM DTT
Protocol: as §1
The sn-2 labeled PlsCho (plasmenylcholine or 1-O— (Z)-1P-alkenyl-2-arachidonoyl-sn-glycero-3-phosphocholine) was synthesized as follows. A total of 4 μmol [1-14C]arachidonic acid (from NEN, with specific activity […]) was diluted 10 times with cold arachidonic acid in 250 μl distilled methylene chloride (Fisher Scientific). To this 0.04 mmol p(N,N-dimethyl)amino pyridine (Aldrich) and 0.08 mmol 1,3-dicyclohexyl carbodiimide (Aldrich) were added to yield the arachidonoyl anhydride upon 1 h of stirring. Lysoplasmenylcholine (0.06 mmol, from Serdary) dissolved in 200 μl methylene chloride and 50 μl pyridine (Fisher Scienticc) was added to the arachidonoyl anhydride solution with 0.03 μmol dimethylaminopyridine and left stirring for 8 h. The reaction progress was monitored by thin layer chromatography (Merck) using a mobile phase of chloroform:methanol:triethyl amine:water (65:30:1.5:3.5), and retardation factors were 0.6 and 0.2 for PlsCho and LysoPlsCho, respectively. The separation of the product was carried out by preparative layer chromatography (Merck) in the above mobile system. The reaction yielded a total of 3.6 mg (7.7 μmol) of radiolabeled PlsCho (specific activity 0.18 μCi/μmol) by quantitative phosphate analysis.
as §2

Row | Molecule | Activity ([1]; PAPC/TX-100 mixed micelles (100 μM:400 μM), pH 7.5, 5 mM EDTA) | Activity [2] | Activity ([3]; PisCho/TX-100 mixed micelles (100 μM:600 μM), pH 7.5, 5 mM EDTA) | fold lower activity toward PlsCho than toward DPPC ([3]; TX-100 mixed micelles) | fold lower activity toward PlsCho than toward PAPC ([3]; TX-100 mixed micelles) | Activity ([1]; PAPC/PIP2/TX-100 mixed micelles (97 μM:3 μM:400 μM), pH 7.5, 80 μM Ca2+, 0.1 mg/ml BSA) | Activity ([3]; PisCho/PIP2/TX-100 mixed micelles (100 μM:3 μM:600 μM), pH 7.5, 80 μM Ca2+, 0.1 mg/ml BSA) | activity toward PlsCho relative to activity toward PAPC ([3]; in the presence of 3 mol % PIP2, same conditions)
1 | B1 | 2.0 ± 0.04 µmol/min/mg | 5.6 ± 0.2 µmol/min/mg | 0.53 ± 0.03 µmol/min/mg | 10 fold | 4 fold | – | – | –
2 | B2 | – | – | – | – | – | 21.81 ± 0.09 µmol/min/mg | 13.58 ± 0.05 µmol/min/mg | about 60%
